Data published in the supplement of paper PMC10567573.
± gives the standard deviation.

Experiment: protein stability index of a GFP-peptide fusion (GPS, HEK-293T) (PSI 1-6); higher = more stable
[1] = treatment: DMSO, c terminus: a fixed tail appended
[2] = treatment: MLN4924 1 uM, 8 h, c terminus: a fixed tail appended
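Note: 24-mer peptide tiles fused after GFP, lentivirally expressed, FACS-sorted into six equal bins by GFP/DsRed ratio, decoded by Illumina sequencing, PSI is the read-weighted mean bin number.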

Row | Sequence | protein stability index [1] | protein stability index [2] | protein stability index (treatment: DMSO, c terminus: native) | protein stability index (treatment: MLN4924 1 uM, 8 h, c terminus: native)
1 | ITNVDLREYLSEEVQAVHKNTTYD [USP39] | 4.2 ± 0.24 | 4.17 ± 0.19 |  | 
2 | VFCREGPTHQAHTVGFLDEAIQPY [TRIM15] | 2.85 ± 0.31 | 2.83 ± 0.24 |  | 
3 | GAAVGTGSSYPTTTISYLPHAPPF [JUNB] | 3.1 ± 0.29 | 3.35 ± 0.36 |  | 
4 | MFLAMLAVVSCASIGSGEPPTGN [CDK11A] |  |  | 2.67 ± 0.36 | 2.46 ± 0.39
5 | AGEGLVRSANGFPYREDEEGAFGE [MAP2] | 5.27 ± 0.18 | 5.24 ± 0.38 |  | 
6 | KRMSELCIDFNKNLNEDDTFLVFS | 2.08 ± 0.25 | 2.58 ± 0.11 |  | 
7 | LSFAAKQRELHSHVTNAMVLVNVL [DHCR7] | 2.49 ± 0.77 | 2.44 ± 0.79 |  | 
8 | MCQTKHSPWADGTPCGPAQACMGG [ADAMTS4] | 3.26 ± 0.43 | 3.44 ± 0.4 |  | 
9 | RWETSSWSECSRTCGEGYQFRVVR [ADAMTSL2] | 2.5 ± 0.84 | 2.21 ± 0.35 |  | 
10 | DNLGYRTGYPYRYPALREKSKKYS [ADD1] | 3.56 ± 0.13 | 3.69 ± 0.1 |  | 
11 | QLKIAANPFAKGFRENGRNCKRER [TBX6] | 3.33 ± 0.25 | 3.47 ± 0.33 |  | 
12 | ELRVLADTYDSVYLHPNSYSCACL [HDAC6] | 2.03 ± 0.12 | 2.04 ± 0.4 |  | 
13 | ERTKSRLVNTSENLSKSRKILRSM [VTI1B] | 3.79 ± 0.21 | 3.87 ± 0.19 |  | 
14 | PEGQKVLFVTFLLIYMVTIMGNLL [OR4A15] | 3.06 ± 0.36 | 3.24 ± 0.5 |  | 
15 | QSPTLEFLLRNSQRTVGQLMELCR [EDARADD] | 2.49 ± 0.21 | 2.56 ± 0.26 |  | 
16 | CEEVKMTVASEAKIQLSDSEAKSH [FAN1] | 5.46 ± 0.17 | 5.47 ± 0.074 |  | 
17 | KARVKPPEGYDVVAVYPNAKVELV [PDLIM4] | 3.02 ± 0.18 | 3.31 ± 0.28 |  | 
18 | CHFQALGCRTTHSNQEVLQSCLLV [PYCR3] | 2.8 ± 0.23 | 2.67 ± 0.54 |  | 
19 | THEEGSYLFWEFATDNYDIGFGVY [ACBD3] | 2.65 ± 0.48 | 2.15 ± 0.32 |  | 
20 | ITYPPGVKEISDKISKEEMVRRLK [PDS5B] | 3.49 ± 0.36 | 3.73 ± 0.44 |  | 
21 | RGNPELARLRPGLAVLGADERIFS [HAGHL] | 3.42 ± 0.47 | 3.65 ± 0.14 |  | 
22 | DCLKKFNARRKLKGAILTTMLATR [CAMK2D] | 3.04 ± 0.78 | 3.49 ± 0.37 |  | 

Row | Sequence | protein stability index [1] | protein stability index [2] | protein stability index (treatment: DMSO, c terminus: native) | protein stability index (treatment: MLN4924 1 uM, 8 h, c terminus: native)
23 | YLSPLERKRLAREMQLSEVQIKTW [VENTX] | 2.5 ± 0.2 | 2.7 ± 0.24 |  | 
24 | KQIKAGAYDFPSPEWDTVTPEAKD [CAMK2A] | 5.34 ± 0.26 | 5.27 ± 0.18 |  | 
25 | KDGEYCWRWTGFNFGFDLLVTYTN [GMCL1] | 3.44 ± 0.41 | 2.89 ± 0.46 |  | 
26 | LLATRIAVYLMTFLIVTVAWAAHT [TMEM175] | 3.5 ± 0.17 | 3.12 ± 0.24 |  | 
27 | SSPDDKLLTSPRAINNLVLQGCSS [KLHL14] | 3.99 ± 0.17 | 4.14 ± 0.23 |  | 
28 | ALNSMLRRRFREKKKAIQEEEERD [YJU2B] | 3.57 ± 0.12 | 3.59 ± 0.1 |  | 
29 | SVCFIFTITIGMFPAVTVEVKSSI [SLC29A1] | 3.17 ± 0.55 | 3.46 ± 0.34 |  | 
30 | GAEDGDRAILYPCHGMSSQLVRYS [GALNT9] | 3.09 ± 0.17 | 3.16 ± 0.29 |  | 
31 | DPFDEIILFSLPPALDWDSVHVPG [PTPN9] | 2.55 ± 0.29 | 2.6 ± 0.19 |  | 
32 | KYKRRRFQKTKNLLTGETEADPEM [CLPTM1] | 4.83 ± 0.28 | 4.57 ± 0.4 |  | 
33 | HFSQSLTVIHDFLFSLKESPEKFQ [FAF2] | 2.06 ± 0.23 | 2.44 ± 0.26 |  | 
34 | KLSAKSLQTLRSFSHTLVSLSLFG [ZER1] | 3 ± 0.45 | 2.95 ± 0.43 |  | 
35 | VASGLQFDVETRHVFIGDHSGQVT [WDFY2] | 2.91 ± 0.54 | 3.12 ± 0.46 |  | 
36 | LANGRALSAGSPPVPPGWNPNSSS [DLX1] | 3.93 ± 0.22 | 4 ± 0.29 |  | 
37 | AAEEPGVRGLLASLFAFKSFRENW [C2CD2L] | 2.44 ± 0.19 | 2.65 ± 0.032 |  | 
38 | RWASAPPLYTLIDVLKYSYVRLVC [ZSWIM9] | 2.6 ± 0.45 | 3.01 ± 0.74 |  | 
39 | LEYRFYEQLGSGDGIPQVYYFGPC [CSNK1G3] | 2.19 ± 0.29 | 2.13 ± 0.2 |  | 
40 | RSSGSEGTPADTGDLSPGHGASAP [PWWP2B] | 5.38 ± 0.34 | 5.35 ± 0.2 |  | 
41 | PLPTDPMLGLALGGLVVSAASLAG [TSPAN10] | 2.96 ± 0.63 | 2.65 ± 0.63 |  | 
42 | DTGVFAVVNSHSLSLLGKLTISAA [SLC22A15] | 2.5 ± 0.42 | 2.33 ± 0.53 |  | 
43 | LGKIFDLIGLPPEDDWPRDVSLPR [CDK4] | 2.34 ± 0.5 | 2.42 ± 0.13 |  | 
44 | RDVALQIHFTLIQAFCCENDINIL [GADD45A] | 2.92 ± 0.52 | 2.94 ± 0.59 |  | 
